Measurements published in the DeepSol protein solubility set.

Test: soluble on expression in E. coli; label from the status in PepcDB or PDB records

Soluble on expression in E. coli, not soluble:
MGSDKIHHHHHHMATKSLRRQDLEVHLGSTGQVVGRLYLGSGKRSAFSYDERWLRDARFFTLSPDLLPVLSVQHPQEVFFRALEDTAPDSWGERVIRRAHARLRQQDGETPPLEPVDFLMWVDDEARVGALRLFDPHAKVYLRSGATPGHVPPLVELDKVVQAARALEAGTETARDLQYLLGQGTSLGGARPKSSVRDTDGRLALGKFPSQADRRDVIRGEVLAMHLAAKAGIKVAAARVELIGGTAVAIIRRFDRTDDGGRIPYVSAATMLQSDGRDTVHAYTELVDVLLREGADPIADIHQLWRRLVLNFLICNTDDHLRNTGFLYDSRNHGWRLSPAFDLNPMPGDRRESKTWLTEDSGPIESRDMLMEGAPYFRLAAEEAAAIWTEVAQAVGSWRVVARGLGMQGTDLVDFEPAFA
MGSDKIHHHHHHMATLGANASLYSEQHRITYYECDRTGRATLTTLIDIAVLASEDQSDALGLTTEMVQSHGVGWVVTQYAIDITRMPRQDEVVTIAVRGSAYNPYFAYREFWIRDADGQQLAYITSIWVMMSQTTRRIVKILPELVAPYQSEVVKRIPRLPRPISFEATDTTITKPYHVRFFDIDPNRHVNNAHYFDWLVDTLPATFLLQHDLVHVDVRYENEVKYGQTVTAHANILPSEVADQVTTSHLIEVDDYYCCEVTIQWRTLPEPIQ
MGSDKIHHHHHHMATLSKKIDFAIIMSVKNANPNGDPLNGNRPRTDYEGLGEITDVCLKRKIRDRLVEQYVSLKNEEEKKGQAIFVQSDDRKIDGETSLRNRAESEKNGLGKKAFGANAKKDETAKSACEKWFDVRAFGQVFAFGKGNDADGVSIPVRGPVTIQSAFSRDLVSISSTQITKSVSGEGDGKKRSSDTMGMKHRVDRGIYVTYGTMNPQLAERTGFSDKDAAVIKAILPKIFENDASSARPEGSMEVVKVLWWQHNSKSGDYSSAKVHRSLKVNPDGSYIIEPLNGLVPEEIAGF
MGSDKIHHHHHHMAYRDQSLGELAIAIPRATKLFRELNLDFCCGGKQTLSRAAGKKDLNIDELEAQLEKLAAQPSDARDWREAPLADIIAYIIPRFHDRHREQLPELILMAKKVERVHHDKADCPHGLANQLTAIYNELSQHMMKEERILFPMIGQGMGANAAAPISVMEHEHDDAGRDVEVVKELTNGVVPPEGACNTWRALYSGINEFITDLMEHIHLENNLLFPRALRGE
MGSDKIHHHHHHMAYTVLLVTSVNTYKEQLNHPIMSDVGKLLPTKIKRVESATDEHSLIKLVQDANVSGEKISIAGMQHSQGGQTYYPHGTMLDMKGYNKILEFDPEKKRITVQSGATWNDIQKKVNPYGLAVQVMQSQNIFTVGGSLSVNVHGRDIRHEALIDTVESFRLLMADGTVRNVSREENADLFPYVIGGYGLFGVILDVTLKLTNDELYETHTKMLDYKEYTSYFKEKVKKDENVRMHLARISVAPNSFFREMYVTDYTLAKNQNMREEYSKLKEETIIAAPKFLLGLSRYSDWGKDTFWDIQRSYFERTDGKYETRNNVMRSDSAFMEYENPNRTEVLQEYFVPIDFFTEYIDDLRNVLNEEEFNLLNITVRYVEKNENAVLSYAKDDMFALVLLINQGRSEHEIKKTENVIQKMIDVTLKHNGSYYLPYYSYPSKEQLRRAYPRIEEFLQKKKEADPKERFVNLFYREYTK
MGSDKIHHHHHHMCQRAIANIDISKEYDESMGSNDVHYQSFARMADFFGRDMQAHRHDQFFQMHFLDTGQIELQLDDHRYSVQAPLFVLTPPSVPHAFITESDSDGHVLTVREELVWPLLEVLYPGTREAFGLPGICLSLADKPNELAALKHYWQLIERESTEQLAGCEHTLVLLAQAVFTLLLRNAKLDDHAATGMRGELKLFQRFTLLIDNHFHQHWTVPDYACELHITESRLTDICRRFANRPPKRLIFDRQLREAKRLLLFSDNAVNEIAWQLGFKDPAYFARFFNRLAGCSPSQFRQREVPSFLN
MGSDKIHHHHHHMCRWAAYIGPPVHLDEVVCKPEHSLVAQSVHAFECKTQTNADGFGIAWYDSREEPGLYRDTHPAWSDPNLKSITHQVRSGLFLAHVRASTGTATSRNNCHPFTHGCWSFMHNGQVGGFENFRRRADMIIPDELYSARKGATDSEALFLIAIAEGLYEDPKGAMQRAVGRLEALSREFGHTPHMRIGAAFSCGGALYAVRYASDHLAPTVYSSKSADGTGRLVVSEPLHKGECWEAVPAGSFCRFTADDTEIEDFVPQF
MGSDKIHHHHHHMCTVQSNITSHVKKLEEELGVILLNRHNPVTLTNAGHQLHSYAVQMIALHNKAKTIFREGDIDPNETIRLGSMETTAAIRLPQLLNECMQQHPNLPLELQTHPTGYLLNAVQQGEVDCAFVASKYVIPELYSFPVWQEQLVLVCPKQQIDFPDIATLAKTRFIAFRQGCSYRHAIELFLNDHSVPPSQIMEMGSLDGIVSCVELGVGFALLPKSYLNKVADKVSLSCFEINTESAHFTTYLVAQPPETWGSNLKQFICFIEQQFIQKCA
MGSDKIHHHHHHMDAKTIIENRFQSQKLIQTAWSDSPERIVFHFGAMQSQNYGQSLWAVGSRMTTPSEESVEQAINNGEIIRTWLLRGTIHLFSAKDYHWMMDLIAPTIDKICKPYRAKLGLTDEVLHKATEVVSEIVSEQAVTRKDLAAHLATKDLPSAGIPFAQLLVYLSSRKVICSGPNETFRNTMHIPADTNHFTREEAIKELAKRYIQSHAPATLKDFCFWSGLTVTDAKIGLADMPKMGDYYITTLVENGTMPTTIPLAGFDEWIIGYRDRSVVLPEIWHDEIMTKNGIFRPAIITEGKVVGKWEKPKKRAELDGDFWDRYIQFRNML
MGSDKIHHHHHHMDAMPSTTAITVSQLSRLVGLPGVPVIIDVRIDEDFDADPRLLPASIRRDFKTVSTWAPDFAGKPVVVVCQKGLKLSQGVAAWLRHEGIPAESLEGGFEAWREADGLLVSTDKLPPRDEKGRTVWVTRSRPKVDRIACPWLIRRFVDPRAVFLFVEAAEVPAVADRFQAVPFDIDNVFWSHRGERCTFDTMIEEFGLESTALDRLAAIVRAADTARLDLVPQAAGFLAASLGLSRMFRDDLEQLEAGMLLYDAFFRWCRDATEETHNWPSAGKPS
MGSDKIHHHHHHMDEVESNFLTVGTLNRYLSAKFVHDPYLKQVSLTGEIFGYKISSGSAYFELRDEDESSIRAYVSPTILRGFPFDFKSGDKVNLVADVRLYGKRAYASLFIFSMQPAGLGELYLKLAELKNKLTKEGIFNRPTKELNYFPKKIAVITSKTGAVIHDISSTIGHRNPNLKIELFESSVQGDSAVKELVSAVKKADQSDADAIIIARGGGSTLDLWPFNDEQLVRLLSSLSKPVISSIGHETDVTLTDLAADYRVETPTAAANKVTPAILDYRNNLDQLTALMSVDIKQLLQKNLNRFEYLANSPALKSFDQVFFNHEQKLQNLNLRLANSFAGEFQKNIQQFANLTAKLDALSPLKVLDRGFSLTFKGDRLIKNAQQLKEKDHIKILFAKGSALAEIKEISDDRRI
MGSDKIHHHHHHMDFKELFPEVITKQEVKQSEDYIIVEQDGHVLHFPKSSLTKRELYLLQMTPSLEDASSVDSQNPWYRYLVEGRGRLPQSHSAVQFIFIEHQFTLSEELKDFLSPLVINVETIMTINQTQSVMILNQDNFFNATELLTDILPTIENDFNTRLRCYFGNSWTHLQAVDWKELYEEEYKLFTLFLSHKAEQHYCRFPKMALWALANQSPMPSIKAKCLQHILDTSDTSAIIKALWQEQGNLAKTAKALFIHRNSLQYKLDKFTQSSGLNLKILDDLAYAYLISMDT
MGSDKIHHHHHHMDFSDEKMPFLADAVDRVRVEECFRQCLVIAQNFRVQNIRVIRHKLGRRCLIEYELMDDVGEIITLIGKVRAKGTDFHSYELQKSLWESGFADDSADGISVPEPVGIIPEWQMWLQRRVEGVTATQILSQTNGIFPAKLIAEAAYKLHQANIIPRRSHRMSDELRILHERIPLVMEQYPQWQRRLERILLASDDLGANTPELKLCGIHRDFYPDQVIMNNSRLYLLDLDLYCAGNPAVDIGNFIAHLQEYSLRTVGNPQALQEYEDILKTRFLQLTGDEFSLAIQAYTILTLVRHIYISTLFPERRPFTAALLHLCEQRLNITHNS
MGSDKIHHHHHHMDGLLNPRESSKFIAENSRDVFIDSGGVRRVAELLLAKAAGPELRVEGWKALHELNPRAADEAAVNWVFVTDTLNFSFWSEQDEHKCVVRYRGKTYSGYWSLCAAVNRALDEGIPITSASYYATVTLDQVRNILRSDTDVSMPLVEERHRILNETGKILLEKFGGSFLNCVRESENSAQKLMHLVVESFPSYRDVTLFEGKRVSFYKRAQILVADTWSVLEGKGDGCFKDISSITMFADYRLPQVLAHLGALKYSDDLLKKLLKGEMLSYGDRQEVEIRGCSLWCVELIRDCLLELIEQKGEKPNGEINSILLDYYLWDYAHDHREDMKGIPFHRIRCIYY
MGSDKIHHHHHHMDISIARTFLEVVKTGSFVNAAANLNISQTAVSARIRVLEEQLDRPMFVRNKAGARLTPAGEQFFRFATSLVQVWEAARTTVALPPGREAMVTIGAELSLWNPLLKHWLLWMRRECASVAIRTTIDRSERLMELVQDGSLDAAVLYGAPNRPGTLTELLFEEKLVLVRTTALSQPPGPEDLVGIDWGEDFAGSYRAAFPGGRNPVVAISYGPLALDYILEVGGSGYFRQGFVRPYLVDGRLELVPNSPEFAYPAYLVSSAKADRSMLDRIRAGLRAAASSAGV
MGSDKIHHHHHHMDKLASEYKVLIVDDVPTNVMLVQAILKKEGYTLLTCDSGTKALRIANEKHPNLILLDIMMPEMDGYEVLQHLKSNPETTDIPVIIMSALSDMQSIVKGYQLGATEYVTKPFQREELVKRVAHRYELYSIKRIKAELENTIESRDTLYSVIAHDLRSPLGSLKMMNNAILMMVDKERVGDEVYEMIQMMNKTSEEIFLLLDNLLKWAKNRLNKQHVYKQQTDINSIIDSTAEMYVPMAAQKGVKIILENLDKELVGLVDIDMLKTIIRNLISNAMKFSFEGGTITLSSRSEGDFVTVSVKDTGKGIKKEDQDKLLKQDSHFTTYGTKNEKGSGLGLMLCKDFVELHGGKLWFESEGEGKGTTFLFSMKALNQEA
MGSDKIHHHHHHMDKLDFRSQDFSQTGKAMYELACELFPIPRSITGQGFRDSLEILNKTLGGGILKFHSIKSGTKVFDWIVPDEWNVKEAYIITPKGEKICDFKKHNLHLLNYSEAIDQEIELEELQDHLYSIEEMPDAIPYVTSYYKRRWGFCLTHNERKKLKKGKYKVYIDAKHDENGVLDYADFILPSTQNSKDEILISTYLCHPSMANNELSGPVVSIFLAKWLLGLKERRYNYRFVIIPETIGSIVYLSKHLECLKKHVKAGFVLSCLGDDHTYSLIHTVKENTLSDKVALHTLKNKENFKAFSFLDRGSDERQYNAPLVNLGIVGVCRTRYGDYDGYHNSKDDLNFISEKGLMGGLQSMQEMILNLEINAVYENTIVCEPNLGKRGLYHTLSTTNDIPLACNFLAYCDGENDIIDIANILNMQAYEFKELLEKIKFYGLVK
MGSDKIHHHHHHMDKLRAIQLFVRLADLGSFTRVAEQVNSSKSMISKEISRLEADLGTRLLHRSTRSVQLTHVGEGYLQRAREILSKLDDADNFVQDLQQNLRGKLKINAPMALGITDLSHLFADFMKANPEIELDIHLGDESVDLVEQGFDLGFRASSQPIDSNYVGRPLTRFTYKVCVSPDYLKMHSTITHPRDLKEHNCFIYSYFQGKNVWPIEGGIEVKGSLRVNNTMFMMESIKQGLGIGFIPDFVCQQAINSGQVVEVLADSKKSMLTLYALYPVRNFVPPKLVQCIEYLEQWFADKDKP
